doi:10.1101/2025.06.26.661714

Target: biotin-conjugated Aβ_(1-40)
Assay: ELISA

- EC50: 3.5 nM
B1: solanezumab-Im7 wild-type (solanezumab Fab conjugated to Immunity protein 7) (Fab, V domains shown)
VH: EVQLVESGGGLVQPGGSLRLSCAASGFTFSRYSMSWVRQAPGKGLELVAQINSVGSSTYYPDTVKGRFTISRDNAKNTLYLQMNSLRAEDTAVYYCASGDYWGQGTLVTVSS
VL: DVVMTQSPLSLPVTLGQPASISCRSSQSLIYSDGNAYLHWFLQKPGQSPRLLIYKVSNRFSGVPDRFSGSGSGTDFTLKISRVEAEDVGVYYCSQSTHVPWTFGQGTKVEIK
